Data reported in US20170267738A1 (published 2017).

T1: MAGEA4 (MAG-003 A7, alanine at position 7) peptide on HLA-A*02:01 (human)
T1 peptide: KVLEHVARV

T2: TPX2 (peptide TPX2-001) peptide on HLA-A*02:01 (human)
T2 peptide: KILEDVVGV

T3: RABGAP1L (peptide RABGAP1L-001) peptide on HLA-A*02:01 (human)
T3 peptide: FLLETVVRV

T4: MIA3 (peptide MIA3-001) peptide on HLA-A*02:01 (human)
T4 peptide: KVLDKVFRA

T5: MAGEA4 (MAG-003 A6, alanine at position 6) peptide on HLA-A*02:01 (human)
T5 peptide: KVLEHAVRV

T6: AXIN1 (peptide AXIN1-001) peptide on HLA-A*02:01 (human)
T6 peptide: ILDEHVQRV

T7: SYNE3 (peptide SYNE3-001) peptide on HLA-A*02:01 (human)
T7 peptide: KLLDLQVRV

T8: CNOT1 (peptide CNOT1-003) peptide on HLA-A*02:01 (human)
T8 peptide: KVLGIVVGV

T9: ANO5 (peptide ANO5-001) peptide on HLA-A*02:01 (human)
T9 peptide: IVMEHVVFL

T10: PSME2 (peptide PSME2-001) peptide on HLA-A*02:01 (human)
T10 peptide: KVLERVNAV

T11: HERC4 (peptide HERC4-001) peptide on HLA-A*02:01 (human)
T11 peptide: KVLEILHRV

T12: HEATR5A (peptide HEATR5A-001) peptide on HLA-A*02:01 (human)
T12 peptide: KVLETLVTV

T13: MAGEA4 (MAG-003 A9, alanine at position 9; same residues as SEQ ID NO: 3) peptide on HLA-A*02:01 (human)
T13 peptide: KVLEHVVRA

T14: MAGEA4 (peptide MAG-003) peptide on HLA-A*02:01 (human)
T14 peptide: KVLEHVVRV

T15: MAGEA4 (MAG-003 A2, alanine at position 2; same residues as SEQ ID NO: 9) peptide on HLA-A*02:01 (human)
T15 peptide: KALEHVVRV


Experiments:
[1] = molecular target: T1, MAGEA4 (MAG-003 A7, alanine at position …); test: cytokine release
[2] = molecular target: T2, TPX2 (peptide TPX2-001) peptide on …; test: cytokine release
[3] = molecular target: T3, RABGAP1L (peptide RABGAP1L-001) peptide …; test: cytokine release
[4] = molecular target: T4, MIA3 (peptide MIA3-001) peptide on …; test: cytokine release
[5] = molecular target: T5, MAGEA4 (MAG-003 A6, alanine at position …); test: cytokine release
[6] = molecular target: T6, AXIN1 (peptide AXIN1-001) peptide on …; test: cytokine release
[7] = molecular target: T7, SYNE3 (peptide SYNE3-001) peptide on …; test: cytokine release
[8] = molecular target: T8, CNOT1 (peptide CNOT1-003) peptide on …; test: cytokine release
[9] = molecular target: T9, ANO5 (peptide ANO5-001) peptide on …; test: cytokine release
[10] = molecular target: T10, PSME2 (peptide PSME2-001) peptide on …; test: cytokine release
[11] = molecular target: T11, HERC4 (peptide HERC4-001) peptide on …; test: cytokine release
[12] = molecular target: T12, HEATR5A (peptide HEATR5A-001) peptide …; test: cytokine release
[13] = molecular target: T13, MAGEA4 (MAG-003 A9, alanine at position …); test: cytokine release
[14] = molecular target: T14, MAGEA4 (peptide MAG-003) peptide on …; test: multimer staining
[15] = molecular target: T15, MAGEA4 (MAG-003 A2, alanine at position …); test: cytokine release

| binding result [1] | binding result [2] | binding result [3] | binding result [4] | binding result [5] | binding result [6] | binding result [7] | binding result [8] | binding result [9] | binding result [10] | binding result [11] | binding result [12] | binding result [13] | binding result [14] | binding result [15] | Binder |
| --- | --- | --- | --- | --- | --- | --- | --- | --- | --- | --- | --- | --- | --- | --- | --- |
| recognises | no recognition | no recognition | no recognition | recognises | no recognition | no recognition | no recognition | no recognition | no recognition | no recognition | no recognition | recognises | recognises | – | R10P2G12 (TCR, V domains shown) Valpha: AQKVTQAQTEISVVEKEDVTLDCVYETRDTTYYLFWYKQPPSGELVFLIRRNSFDEQNEISGRYSWNFQKSTSSFNFTITASQVVDSAVYFCALSEGNSGNTPLVFGKGTRLSVIA Vbeta: DVKVTQSSRYLVKRTGEKVFLECVQDMDHENMFWYRQDPGLGLRLIYFSYDVKMKEKGDIPEGYSVSREKKERFSLILESASTNQTSMYLCASSLSSGSHQETQYFGPGTRLLVL |
| – | no recognition | no recognition | no recognition | recognises | no recognition | no recognition | no recognition | no recognition | no recognition | no recognition | no recognition | recognises | recognises | recognises | R20P1H7 (TCR, V domains shown) Valpha: EDQVTQSPEALRLQEGESSSLNCSYTVSGLRGLFWYRQDPGKGPEFLFTLYSAGEEKEKERLKATLTKKESFLHITAPKPEDSATYLCAVQGENSGYSTLTFGKGTMLLVSP Vbeta: EAQVTQNPRYLITVTGKKLTVTCSQNMNHEYMSWYRQDPGLGLRQIYYSMNVEVTDKGDVPEGYKVSRKEKRNFPLILESPSPNQTSLYFCASSLGPGLAAYNEQFFGPGTRLTVL |
